Results taken from patent US20180030151A1 (MOGAM INSTITUTE FOR BIOMEDICAL RESEARCH, published 2018).
Residue numbers refer to the chain shown, from its start. Like-named read-outs stand apart in the source and are kept apart here. Blank lines part the entries; values can stand above or below the binder they belong to.

Assays:
[1] = molecular target: T1, recombinant human TFPI (tissue factor pathway inhibitor) (human, UniProt P10646 29-304); test: cell-based or functional assay
[2] = molecular target: T1, recombinant human TFPI (tissue factor …); test: cell-based or functional assay; remark: listed apart in the source
[3] = molecular target: T1, recombinant human TFPI (tissue factor …); test: cell-based or functional assay; remark: listed apart in the source
[4] = molecular target: T1, recombinant human TFPI (tissue factor …); test: cell-based or functional assay; remark: listed apart in the source
[5] = molecular target: T1, recombinant human TFPI (tissue factor …); test: cell-based or functional assay; remark: listed apart in the source
[6] = molecular target: T1, recombinant human TFPI (tissue factor …); test: cell-based or functional assay; remark: listed apart in the source
[7] = molecular target: T1, recombinant human TFPI (tissue factor …); test: cell-based or functional assay; remark: listed apart in the source
[8] = molecular target: T1, recombinant human TFPI (tissue factor …); test: cell-based or functional assay; remark: listed apart in the source
[9] = molecular target: T1, recombinant human TFPI (tissue factor …); test: cell-based or functional assay; remark: listed apart in the source
[10] = molecular target: T1, recombinant human TFPI (tissue factor …); test: cell-based or functional assay; remark: listed apart in the source
[11] = molecular target: T1, recombinant human TFPI (tissue factor …); test: cell-based or functional assay; remark: listed apart in the source
[12] = molecular target: T1, recombinant human TFPI (tissue factor …); test: cell-based or functional assay; remark: listed apart in the source
[13] = molecular target: T1, recombinant human TFPI (tissue factor …); test: SPR, Biacore T-200; TFPI immobilised on CM5 chip, IgG as analyte
Protocol: 10 mM of glycine-HCl (pH 1.5) was run at a flow rate of 30 μL/min for 30 seconds, thereby inducing the dissociation of the antibody associated with the TFPI. The affinity in terms of kinetic rate constants (Kₒₙ and Koff) and equilibrium dissociation constant

[14] = molecular target: T1, recombinant human TFPI (tissue factor …); test: yeast-display scFv, FACS with biotinylated TFPI
Protocol: The finally amplified single colonies were collected from the yeast display library, and then cultured in SD medium at 30° C. at 200 rpm for 12 hours. Then, the medium was replaced with SG medium, and the cells were cultured at 25° C. at 200 rpm for 12 hours or more, thereby expressing the antibody on the yeast surface. Next, the yeast cells recovered by centrifugation were washed with PBSF (1% BSA containing PBS) buffer, resuspended in 50 μl of PBSF buffer, and then incubated with a biotin-conjugated recombinant human TFPI protein and anti-c-myc mouse antibody (CAT. No. M4439, Sigma) at room temperature for 30 minutes. The incubated yeast cells were washed with PBSF, resuspended in 50 μl of PBSF buffer, and then incubated with FITC-conjugated anti-mouse antibody (CAT. No. F0257, Sigma) and PE-conjugated streptavidin on ice under a light-shielded condition for 15 minutes. Next, the cells were washed with PBSF buffer, resuspended in 500 μl of PBSF buffer, and then clones showing high values in the FITC and PE wavelength ranges were selected by FACS, thereby obtaining individual clones.

TFPI inhibitory activity, FXa activity assay, Ab 10 nM [1]: 78% | TFPI inhibitory activity, FXa activity assay, Ab 40 nM [1]: 82% | TFPI inhibitory activity, TF/FVIIa/FXa complex assay, Ab 50 nM [1]: 100% | TFPI inhibitory activity, TF/FVIIa/FXa complex assay, Ab 100 nM [1]: 100% | A405, TF/FVIIa/FX complex assay, Ab 1.56 nM [2]: 0.135 | A405, TF/FVIIa/FX complex assay, Ab 3.13 nM [2]: 0.155 | A405, TF/FVIIa/FX complex assay, Ab 6.25 nM [2]: 0.177 | A405, TF/FVIIa/FX complex assay, Ab 12.5 nM [2]: 0.223 | A405, TF/FVIIa/FX complex assay, Ab 25 nM [2]: 0.664 | A405, TF/FVIIa/FX complex assay, Ab 50 nM [2]: 0.926 | A405, TF/FVIIa/FX complex assay, Ab 100 nM [2]: 0.938 | % of Normalized, TF/FVIIa/FX complex assay, Ab 1.56 nM [3]: 14.7% | % of Normalized, TF/FVIIa/FX complex assay, Ab 3.13 nM [3]: 16.8% | % of Normalized, TF/FVIIa/FX complex assay, Ab 6.25 nM [3]: 19.2% | % of Normalized, TF/FVIIa/FX complex assay, Ab 12.5 nM [3]: 24.2% | % of Normalized, TF/FVIIa/FX complex assay, Ab 25 nM [3]: 72.3% | % of Normalized, TF/FVIIa/FX complex assay, Ab 50 nM [3]: 101% | % of Normalized, TF/FVIIa/FX complex assay, Ab 100 nM [3]: 102% | A405, TF/FVIIa/FX complex assay, Ab 1.56 nM [4]: 0.154 | A405, TF/FVIIa/FX complex assay, Ab 3.13 nM [4]: 0.164 | A405, TF/FVIIa/FX complex assay, Ab 6.25 nM [4]: 0.185 | A405, TF/FVIIa/FX complex assay, Ab 12.5 nM [4]: 0.222 | A405, TF/FVIIa/FX complex assay, Ab 25 nM [4]: 0.716 | A405, TF/FVIIa/FX complex assay, Ab 50 nM [4]: 0.909 | A405, TF/FVIIa/FX complex assay, Ab 100 nM [4]: 0.926 | % of Normalized, TF/FVIIa/FX complex assay, Ab 1.56 nM [5]: 16.1% | % of Normalized, TF/FVIIa/FX complex assay, Ab 3.13 nM [5]: 17.2% | % of Normalized, TF/FVIIa/FX complex assay, Ab 6.25 nM [5]: 19.4% | % of Normalized, TF/FVIIa/FX complex assay, Ab 12.5 nM [5]: 23.2% | % of Normalized, TF/FVIIa/FX complex assay, Ab 25 nM [5]: 75% | % of Normalized, TF/FVIIa/FX complex assay, Ab 50 nM [5]: 95.2% | % of Normalized, TF/FVIIa/FX complex assay, Ab 100 nM [5]: 97% | FXa assay % of FXa alone, 0.625 nM Ab, 10 nM TFPI [6]: 4% | FXa assay % of FXa alone, 2.5 nM Ab, 10 nM TFPI [6]: 8% | FXa assay OD, 0.625 nM Ab, 10 nM TFPI [6]: 0.042 OD | FXa assay OD, 2.5 nM Ab, 10 nM TFPI [6]: 0.083 OD | FXa assay OD, 10 nM Ab, 10 nM TFPI [6]: 0.765 OD | FXa assay OD, 40 nM Ab, 10 nM TFPI [6]: 0.804 OD | TF/FVIIa/FXa assay % of 0 nM TFPI, 12.5 nM Ab, 50 nM TFPI [7]: 20.7% | TF/FVIIa/FXa assay % of 0 nM TFPI, 50 nM Ab, 50 nM TFPI [7]: 111% | TF/FVIIa/FXa assay % of 0 nM TFPI, 100 nM Ab, 50 nM TFPI [7]: 111% | TF/FVIIa/FXa assay OD, 12.5 nM Ab, 50 nM TFPI [7]: 0.166 OD | TF/FVIIa/FXa assay OD, 25 nM Ab, 50 nM TFPI [7]: 0.548 OD | TF/FVIIa/FXa assay OD, 50 nM Ab, 50 nM TFPI [7]: 0.886 OD | TF/FVIIa/FXa assay OD, 100 nM Ab, 50 nM TFPI [7]: 0.89 OD | FXa assay % of FXa alone, 2.5 nM Ab, 10 nM TFPI [8]: 8.3% | FXa assay % of FXa alone, 5 nM Ab, 10 nM TFPI [8]: 59.8% | FXa assay % of FXa alone, 10 nM Ab, 10 nM TFPI [8]: 73.9% | FXa assay % of FXa alone, 20 nM Ab, 10 nM TFPI [8]: 74.1% | FXa assay OD, 2.5 nM Ab, 10 nM TFPI [8]: 0.06 | FXa assay OD, 5 nM Ab, 10 nM TFPI [8]: 0.43 | FXa assay OD, 10 nM Ab, 10 nM TFPI [8]: 0.531 | FXa assay % of FXa alone, 2.5 nM Ab, 10 nM TFPI [9]: 9.9% | FXa assay % of FXa alone, 5 nM Ab, 10 nM TFPI [9]: 56.8% | FXa assay % of FXa alone, 10 nM Ab, 10 nM TFPI [9]: 76.8% | FXa assay % of FXa alone, 20 nM Ab, 10 nM TFPI [9]: 77.3% | FXa assay OD, 2.5 nM Ab, 10 nM TFPI [9]: 0.0765 | FXa assay OD, 5 nM Ab, 10 nM TFPI [9]: 0.438 | FXa assay OD, 10 nM Ab, 10 nM TFPI [9]: 0.591 | FXa assay % of FXa alone, 2.5 nM Ab, 10 nM TFPI [10]: 8.5% | FXa assay % of FXa alone, 5 nM Ab, 10 nM TFPI [10]: 26.5% | FXa assay % of FXa alone, 10 nM Ab, 10 nM TFPI [10]: 57.9% | FXa assay % of FXa alone, 20 nM Ab, 10 nM TFPI [10]: 67% | FXa assay OD, 2.5 nM Ab, 10 nM TFPI [10]: 0.041 | FXa assay OD, 5 nM Ab, 10 nM TFPI [10]: 0.129 | FXa assay OD, 10 nM Ab, 10 nM TFPI [10]: 0.28 | FXa assay OD, 20 nM Ab, 10 nM TFPI [10]: 0.325 | FXa assay % of FXa alone, 2.5 nM Ab, 10 nM TFPI [11]: 8.6% | FXa assay % of FXa alone, 5 nM Ab, 10 nM TFPI [11]: 30.7% | FXa assay % of FXa alone, 10 nM Ab, 10 nM TFPI [11]: 60.4% | FXa assay % of FXa alone, 20 nM Ab, 10 nM TFPI [11]: 71.6% | FXa assay OD, 2.5 nM Ab, 10 nM TFPI [11]: 0.069 | FXa assay OD, 5 nM Ab, 10 nM TFPI [11]: 0.247 | FXa assay OD, 10 nM Ab, 10 nM TFPI [11]: 0.487 | FXa assay OD, 20 nM Ab, 10 nM TFPI [11]: 0.578 | FXa assay % of FXa alone, 2.5 nM Ab, 10 nM TFPI [12]: 7% | FXa assay % of FXa alone, 5 nM Ab, 10 nM TFPI [12]: 20.8% | FXa assay % of FXa alone, 10 nM Ab, 10 nM TFPI [12]: 49.3% | FXa assay % of FXa alone, 20 nM Ab, 10 nM TFPI [12]: 68.4% | FXa assay OD, 2.5 nM Ab, 10 nM TFPI [12]: 0.057 | FXa assay OD, 5 nM Ab, 10 nM TFPI [12]: 0.169 | FXa assay OD, 10 nM Ab, 10 nM TFPI [12]: 0.401 | FXa assay OD, 20 nM Ab, 10 nM TFPI [12]: 0.555 | Kd [13]: 0.024 nM
B1: clone 308-4 (antibody, V domains shown)
VH: EVQLVESGGGLVKPGGSLRLSCAASGFTFSSYAMNWVRQAPGKGLEWVSTITTGGSYTYYADSVEGRFTISRDNAKNSLYLQMNSLRAEDTAVYYCARQDGNFLMDYWGQGTLVTVSS
VL: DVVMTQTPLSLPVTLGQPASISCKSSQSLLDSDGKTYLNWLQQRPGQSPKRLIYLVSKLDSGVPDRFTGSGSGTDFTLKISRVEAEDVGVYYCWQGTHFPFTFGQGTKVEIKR

binding result [14]: binds
B2: clone 4041 (antibody, V domains shown)
VH: B1 VH with N35S, Y57H, N102Y
VL: DVVMTQTPLSLPVTLGQPASISCKSSQSLLDVDGKTYLNWLQQRPGQSPKRLIYLVSKLDSGVPDRFTGSGSGTDFTLKISRVEAEDVGVYYCWQGTHFPFTFGQGTKVEIKR
notes: scFv on yeast at selection; human IgG4/kappa IgG as purified
